Source: patent US20250382384A1

Experiments:
[1] = target: MUC1 on normal activated human T cells (human) (UniProt P15941); experiment: FACS on PHA-L-activated human PBMC, live αβTCR+ cells; gating scheme, donor not given
[2] = target: MUC1 on normal activated human T cells (human) (UniProt P15941); experiment: FACS on PHA-L-activated human PBMC, live αβTCR+ cells, donor 190980805C
[3] = target: MUC1 on normal activated human T cells (human) (UniProt P15941); experiment: FACS on PHA-L-activated human PBMC, live αβTCR+ cells, donor 3009223
[4] = target: MUC1 on normal activated human T cells (human) (UniProt P15941); experiment: FACS on PHA-L-activated human PBMC, live αβTCR+ cells, donor 191180405C
[5] = target: MUC1 on normal activated human T cells (human) (UniProt P15941); experiment: FACS on PHA-L-activated human PBMC, live αβTCR+ cells, donor 3011029

Chain of MUC1 on normal activated human T cells (human) (P15941 24-1255): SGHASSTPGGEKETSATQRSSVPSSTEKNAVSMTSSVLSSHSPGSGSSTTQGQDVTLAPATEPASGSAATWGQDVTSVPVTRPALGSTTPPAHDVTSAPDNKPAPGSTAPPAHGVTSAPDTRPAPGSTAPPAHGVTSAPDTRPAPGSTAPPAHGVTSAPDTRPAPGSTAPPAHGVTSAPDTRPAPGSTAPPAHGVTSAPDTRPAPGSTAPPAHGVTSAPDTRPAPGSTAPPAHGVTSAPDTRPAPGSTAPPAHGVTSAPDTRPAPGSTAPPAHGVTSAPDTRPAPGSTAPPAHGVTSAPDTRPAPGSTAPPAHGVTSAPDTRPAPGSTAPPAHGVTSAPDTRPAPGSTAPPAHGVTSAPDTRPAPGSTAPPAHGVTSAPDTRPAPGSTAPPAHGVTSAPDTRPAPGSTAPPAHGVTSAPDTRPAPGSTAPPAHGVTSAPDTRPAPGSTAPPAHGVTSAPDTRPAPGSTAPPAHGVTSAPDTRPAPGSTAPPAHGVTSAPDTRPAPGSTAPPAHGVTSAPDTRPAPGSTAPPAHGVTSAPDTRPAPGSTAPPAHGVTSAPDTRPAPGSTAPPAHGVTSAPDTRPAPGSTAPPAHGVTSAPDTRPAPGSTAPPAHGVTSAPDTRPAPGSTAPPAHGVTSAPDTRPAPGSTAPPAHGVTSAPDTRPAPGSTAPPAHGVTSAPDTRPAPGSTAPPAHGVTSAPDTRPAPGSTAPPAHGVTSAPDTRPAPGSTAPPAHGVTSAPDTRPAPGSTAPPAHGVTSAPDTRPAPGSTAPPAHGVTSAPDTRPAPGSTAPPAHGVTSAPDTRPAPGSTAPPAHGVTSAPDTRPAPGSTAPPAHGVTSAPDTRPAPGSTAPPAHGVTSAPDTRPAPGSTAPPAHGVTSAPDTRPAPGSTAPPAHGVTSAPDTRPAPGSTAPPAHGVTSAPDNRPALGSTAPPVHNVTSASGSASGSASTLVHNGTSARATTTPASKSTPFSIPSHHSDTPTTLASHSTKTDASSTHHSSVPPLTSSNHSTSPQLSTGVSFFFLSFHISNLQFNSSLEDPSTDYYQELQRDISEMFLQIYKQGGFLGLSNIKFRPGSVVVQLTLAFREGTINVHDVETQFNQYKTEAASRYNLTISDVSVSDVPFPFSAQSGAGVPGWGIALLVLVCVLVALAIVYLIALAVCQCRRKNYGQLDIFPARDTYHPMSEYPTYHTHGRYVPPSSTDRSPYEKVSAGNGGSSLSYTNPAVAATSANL

In the case of HMFG1 (antibody), the percent of αβTCR+ T cells in the dashed MUC1+ box (antibody-bound T cells) [1] is reported as 28.1%, the percent of αβTCR+ T cells in the dashed MUC1+ box (antibody-bound T cells) [2] is reported as 28.2% and the percent of αβTCR+ T cells in the dashed MUC1+ box (antibody-bound T cells) [3] is reported as 10%. For the same substance, the percent of αβTCR+ T cells in the dashed MUC1+ box (antibody-bound T cells) [4] was 28.1% and the percent of αβTCR+ T cells in the dashed MUC1+ box (antibody-bound T cells) [5] was 23.2%.

Substance Isotype (antibody) has a percent of αβTCR+ T cells in the dashed MUC1+ box (antibody-bound T cells) [1] of 0.29%, a percent of αβTCR+ T cells in the dashed MUC1+ box (antibody-bound T cells) [2] of 0.15% and a percent of αβTCR+ T cells in the dashed MUC1+ box (antibody-bound T cells) [3] of 0.05%. The percent of αβTCR+ T cells in the dashed MUC1+ box (antibody-bound T cells) [4] was 0.29% and the percent of αβTCR+ T cells in the dashed MUC1+ box (antibody-bound T cells) [5] was 0.36%.
